According to the supplement of paper PMC9112550, “Optimization of the antimicrobial peptide Bac7 by deep mutational scanning” (BMC Biology, 2022):

Test system: Escherichia coli TOP10
Experiment: shrunken log2 fold change of peptide-encoding DNA abundance (4.5 h post-induction vs induction); higher = less antimicrobial activity (less host growth inhibition)
Settings: time post-induction: 4.5 h; library: site-saturation at positions 5, 18, 19, 20
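Also: peptides expressed intracellularly from a pBAD plasmid library in pooled LB shake-flask culture, induced with 0.3% L-arabinose, DNA abundance read by NGS, three biological replicates, DESeq2 with apeglm shrinkage.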

| Sequence | shrunken log2 fold change |
| --- | --- |
| RRIRGRPPRLPRPRPRPMQPPRP | 1.77 |
| RRIRGRPPRLPRPRPRPMRCPRP | 0.581 |
| RRIRGRPPRLPRPRPRPMSDPRP | 0.34 |
| RRIRGRPPRLPRPRPRPMSRPRP | 0.00829 |
| RRIRGRPPRLPRPRPRPMVFPRP | 0.78 |
| RRIRGRPPRLPRPRPRPMVIPRP | 0.329 |
| RRIRGRPPRLPRPRPRPMVRPRP | 0.03 |
| RRIRGRPPRLPRPRPRPMWGPRP | -0.0435 |
| RRIRGRPPRLPRPRPRPMYCPRP | 0.0756 |
| RRIRGRPPRLPRPRPRPMYNPRP | -0.104 |
| RRIRGRPPRLPRPRPRPMYRPRP | 0.115 |
| RRIRGRPPRLPRPRPRPNAFPRP | 0.665 |
| RRIRGRPPRLPRPRPRPNAVPRP | 0.924 |
| RRIRGRPPRLPRPRPRPNCRPRP | 0.0979 |
| RRIRGRPPRLPRPRPRPNCWPRP | 0.303 |
| RRIRGRPPRLPRPRPRPNDHPRP | 0.143 |
| RRIRGRPPRLPRPRPRPNDNPRP | 0.19 |
| RRIRGRPPRLPRPRPRPNHNPRP | -0.409 |
| RRIRGRPPRLPRPRPRPNHRPRP | 0.00454 |
| RRIRGRPPRLPRPRPRPNKAPRP | 0.454 |
| RRIRGRPPRLPRPRPRPNKHPRP | 0.124 |
| RRIRGRPPRLPRPRPRPNKKPRP | 0.0152 |
| RRIRGRPPRLPRPRPRPNMEPRP | 0.22 |
| RRIRGRPPRLPRPRPRPNMSPRP | 0.161 |
| RRIRGRPPRLPRPRPRPNNHPRP | -0.15 |

| Sequence | shrunken log2 fold change |
| --- | --- |
| RRIRGRPPRLPRPRPRPNNYPRP | 0.0781 |
| RRIRGRPPRLPRPRPRPNPAPRP | 0.231 |
| RRIRGRPPRLPRPRPRPNRTPRP | -0.0769 |
| RRIRGRPPRLPRPRPRPNSAPRP | 0.749 |
| RRIRGRPPRLPRPRPRPNSDPRP | -0.0204 |
| RRIRGRPPRLPRPRPRPNSHPRP | 0.285 |
| RRIRGRPPRLPRPRPRPNSQPRP | 0.271 |
| RRIRGRPPRLPRPRPRPNTAPRP | 0.543 |
| RRIRGRPPRLPRPRPRPNTRPRP | 0.528 |
| RRIRGRPPRLPRPRPRPNTVPRP | -0.0703 |
| RRIRGRPPRLPRPRPRPNVEPRP | 0.183 |
| RRIRGRPPRLPRPRPRPNVMPRP | 0.114 |
| RRIRGRPPRLPRPRPRPNWWPRP | 3.32 |
| RRIRGRPPRLPRPRPRPNYHPRP | -0.179 |
| RRIRGRPPRLPRPRPRPNYIPRP | -0.099 |
| RRIRGRPPRLPRPRPRPPANPRP | 1.12 |
| RRIRGRPPRLPRPRPRPPAYPRP | 0.532 |
| RRIRGRPPRLPRPRPRPPCDPRP | 0.734 |
| RRIRGRPPRLPRPRPRPPCHPRP | 0.429 |
| RRIRGRPPRLPRPRPRPPDTPRP | 1 |
| RRIRGRPPRLPRPRPRPPGVPRP | 0.931 |
| RRIRGRPPRLPRPRPRPPHCPRP | 0.902 |
| RRIRGRPPRLPRPRPRPPHTPRP | 0.985 |
| RRIRGRPPRLPRPRPRPPIWPRP | 0.67 |
| RRIRGRPPRLPRPRPRPPLEPRP | 1.2 |

| Sequence | shrunken log2 fold change |
| --- | --- |
| RRIRGRPPRLPRPRPRPPLYPRP | 0.459 |
| RRIRGRPPRLPRPRPRPPMWPRP | 1.1 |
| RRIRGRPPRLPRPRPRPPNIPRP | 0.083 |
| RRIRGRPPRLPRPRPRPPNPPRP | 0.74 |
| RRIRGRPPRLPRPRPRPPPHPRP | 1.26 |
| RRIRGRPPRLPRPRPRPPPMPRP | 1.19 |
| RRIRGRPPRLPRPRPRPPPSPRP | 1.22 |
| RRIRGRPPRLPRPRPRPPPVPRP | 1.25 |
| RRIRGRPPRLPRPRPRPPQAPRP | 1.58 |
| RRIRGRPPRLPRPRPRPPRCPRP | 0.951 |
| RRIRGRPPRLPRPRPRPPRMPRP | 0.608 |
| RRIRGRPPRLPRPRPRPPSKPRP | 0.58 |
| RRIRGRPPRLPRPRPRPPSMPRP | 0.593 |
| RRIRGRPPRLPRPRPRPPSQPRP | 0.882 |
| RRIRGRPPRLPRPRPRPPTWPRP | 0.466 |
| RRIRGRPPRLPRPRPRPPVYPRP | 0.352 |
| RRIRGRPPRLPRPRPRPPWHPRP | 0.396 |
| RRIRGRPPRLPRPRPRPPWTPRP | 0.68 |
| RRIRGRPPRLPRPRPRPPYIPRP | -0.271 |
| RRIRGRPPRLPRPRPRPQALPRP | 0.135 |
| RRIRGRPPRLPRPRPRPQCSPRP | -0.0401 |
| RRIRGRPPRLPRPRPRPQGGPRP | 0.127 |
| RRIRGRPPRLPRPRPRPQGHPRP | 0.278 |
| RRIRGRPPRLPRPRPRPQHIPRP | -0.281 |
| RRIRGRPPRLPRPRPRPQHSPRP | -0.0223 |
